Measured values: patent publication US20090226415A1, “MODIFIED TRIDEGINS, PRODUCTION AND USE THEREOF AS TRANSGLUTAMINASE INHIBITORS” (priority 2001, published 2009)
Where two headings read alike, the source gives them in different places.

T1: factor XIIIa (Homo sapiens, UniProt P00488)
T1 sequence (P00488 39-732 limits assumed): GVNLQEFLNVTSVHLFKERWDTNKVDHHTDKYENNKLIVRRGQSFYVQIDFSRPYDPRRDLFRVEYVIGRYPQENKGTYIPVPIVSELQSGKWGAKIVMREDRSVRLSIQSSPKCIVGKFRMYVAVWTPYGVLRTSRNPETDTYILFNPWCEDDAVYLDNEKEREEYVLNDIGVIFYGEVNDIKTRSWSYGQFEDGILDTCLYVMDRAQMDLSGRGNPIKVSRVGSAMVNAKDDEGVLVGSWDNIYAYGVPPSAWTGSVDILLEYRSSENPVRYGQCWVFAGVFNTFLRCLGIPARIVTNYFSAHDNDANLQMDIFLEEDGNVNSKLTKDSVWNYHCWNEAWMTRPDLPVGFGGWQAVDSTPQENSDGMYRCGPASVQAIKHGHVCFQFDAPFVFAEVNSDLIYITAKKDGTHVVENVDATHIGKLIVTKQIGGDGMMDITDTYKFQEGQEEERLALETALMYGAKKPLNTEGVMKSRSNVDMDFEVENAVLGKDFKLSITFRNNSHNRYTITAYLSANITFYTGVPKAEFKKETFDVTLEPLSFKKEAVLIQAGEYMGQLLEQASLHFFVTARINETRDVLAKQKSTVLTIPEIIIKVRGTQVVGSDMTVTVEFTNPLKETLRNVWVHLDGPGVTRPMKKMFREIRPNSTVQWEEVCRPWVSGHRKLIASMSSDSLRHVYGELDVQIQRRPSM


Legend:
[1] = biological target: T1, factor XIIIa; conditions: Table 1, published inhibitors of factor XIIIa; read-out: Affinity (IC50); cited from earlier work
[2] = Analytical gel filtration run for multimeric, high molecular weight aggregates; format: physicochemical; conditions: 20 mM sodium phosphate, pH 8.0, 300 mM NaCl
Excerpt: These modified tridegins were produced by site-directed mutagenesis of the cysteines present in the wild-type tridegin. The aim of this mutagenesis was to replace, in a step-wise manner, the cysteine residues which are suitable for forming intermolecular disulfide bridges. The tendency to form disulfide bridges, and the aggregation of the end product which accompanies it, were detected by carrying out appropriate chromatographic analyses of the original transglutaminase inhibitor (SEQ ID No. 1) in the presence or absence of reducing agents (e.g. mercaptoethanol and DTT). Thus, in one gel filtration run (on an Amersham-Pharmacia HiPrep 26/60 Sephacryl S200 HR column; 20 mM sodium phosphate, pH 8.0, 300 mM NaCl; 1 ml/min) the purified, recombinant tridegin polypeptide had approximately an 80% content of multimeric, high molecular weight aggregates.

[3] = biological target: T1, factor XIIIa; assay: biochemical; format: biochemical; conditions: for Relative inhibitory effect (%): final variant concentration 5.45 μM
Procedure: The assay is based on factor XIII being activated to form factor XIIIa by thrombin which is present in the reagents. Factor XIIIa links a specific peptide substrate to glycine ethyl ester with ammonium ions being released. The latter are determined in an enzyme reaction which proceeds in parallel. The extinction at 340 nm was used to measure the decrease in NADH. For the measurement, peptides were present in 50% acetonitrile in a stock concentration of 5 mM. The NADH and detection reagents which were supplied by the manufacturer were dissolved in 3 ml of water, with the activator reagent subsequently being dissolved in 3 ml of NADH reagent. For use, the activator and detection reagents were mixed in a ratio of 1:1. In order to carry out the measurement in microtiter plate format, 100 μl of sample (inhibitor or control buffer), 25 μl of factor XIII (10 U/ml) and 150 μl of working reagent were mixed. The measurement was carried out continuously for 20 min at 340 nm, and at 37° C., in a microtiter plate photometer. For the evaluation, the differences in the values measured after 16 and 20 min were compared.
The relative inhibitory effect (%) was determined at a final variant concentration of 5.45 μM. The inhibitory effect of the recombinant tridegin polypeptide was normalized to 100% (at 5.45 μM).
The above-described Berichrom® assay was used to determine the relative inhibitory effect (%) at a final concentration of the peptides of 7.27 μM. The inhibitory effect of the recombinant tridegin polypeptide, at a final concentration of 7.27 μM, was normalized to 100%.
The relative inhibitory effect (%) was determined at a final variant concentration of 5.45 μM. The inhibitory effect of the recombinant wild-type tridegin poly-peptide (at 5.45 μM) was normalized to 100%. The oligonucleotides which were used to produce the abovementioned variants are also specified in the table.

[4] = test system: whole citrate blood; assay: Thrombelastography (ROTEG) of coagulation and fibrinolysis in whole citrate blood; set-up: species or system human
Excerpt: To do this, what are termed thrombelasto-grams were plotted. Thrombelastography is a current method for measuring coagulation and fibrinolysis. The method measures the change in the viscosity of the blood by the change in the resistance to rotation of a plunger which is present in the blood (Calatzis et al., 2000). […] Thrombelastograms quantify important parameters of haemostasis: • clotting time (time between the initiation of coagulation and the beginning of a measurable change in the viscosity of the blood, CT) • stability of the thrombus (maximum amplitude, maximum clot firmness, MCF) • fibrinolysis time (time between the beginning of a measurable change in blood viscosity and achievement of the starting value prior to the clotting, lysis time, LT).
The ROTEG® instrument supplied by Pentapharm GmbH, Munich, was used for the measurements which are shown. FIGS. 5 and 6 show the thrombelastograms of whole citrate blood after the addition of Ca^2+ (Starteg reagent, from Pentapharm GmbH) and thromboplastin phospholipid (Integ reagent, from Pentapharm GmbH). These reagents are used to induce coagulation. […] This is made clear by […]

[5] = Table 4, Cys variants, wild-type tridegin polypeptide normalized to 100%

Row | Molecule | IC50 [1] [µM] | Relative inhibitory effect (%) [3, 5] [%] | further results
1 | C/C=C/C/C=C/CCC(=O)[C@H]1O[C@H]1C(N)=O [Cerulenin] | 29 | – | –
2 | C[C@@H]1CCC/C=C\C(=O)Cc2cc(O)cc(O)c2C(=O)O1 [ZG-1400] | 5.7 | – | –
3 | SEQ ID No. 1: recombinant wild-type tridegin polypeptide expressed in and purified from Escherichia coli (protein) MKLLPCKEWHQGIPNPRCWCGADLECAQDQYCAFIPQCRPRSELIKPMDDIYQRPVEFPNLPLKPREE | – | 100 | content of multimeric, high molecular weight aggregates ([2]; Sephacryl S200 HR, no reducing agent): ~80%; content of the aggregates ([2]; reducing conditions: 1.5 mM DTT): < 20%; Relative inhibitory effect (%) ([3]; Table 2, recombinant tridegin polypeptide normalized to 100%): 100%; IC50 ([3]; purified recombinant tridegin polypeptide from Escherichia coli, FIG. 3): 2 to 4 µM; clotting time (CT) ([4]; FIG. 5 A and B, 190 seconds in the absence of inhibitor): 380 s; effect on fibrinolysis brought about by tPA and urokinase ([4]; lower amplitude and increased rate of fibrinolysis): accelerate and improve the fibrinolysis
4 | C26A: tridegin modified by replacement of a cysteine residue, expressed in Escherichia coli (protein) MKLLPCKEWHQGIPNPRCWCGADLEAAQDQYCAFIPQCRPRSELIKPMDDIYQRPVEFPNLPLKPREE | – | 82 | –
5 | C32A: tridegin modified by replacement of a cysteine residue, expressed in Escherichia coli (protein) MKLLPCKEWHQGIPNPRCWCGADLECAQDQYAAFIPQCRPRSELIKPMDDIYQRPVEFPNLPLKPREE | – | 86 | –
6 | C26A; +C38A: tridegin modified by replacement of two cysteine residues, expressed in Escherichia coli (protein) MKLLPCKEWHQGIPNPRCWCGADLEAAQDQYCAFIPQARPRSELIKPMDDIYQRPVEFPNLPLKPREE | – | 80 | –
